# In patent US20110070246A1 (F HOFFMANN LAROCHE, published 2011):
# T1: Soluble extracellular domain (ECD) of human CDCP1 (human, UniProt Q9H5V8 30-663)
# T1 construct: also called CDCP1-ECD; hCDCP1-ECD
# T1 sequence: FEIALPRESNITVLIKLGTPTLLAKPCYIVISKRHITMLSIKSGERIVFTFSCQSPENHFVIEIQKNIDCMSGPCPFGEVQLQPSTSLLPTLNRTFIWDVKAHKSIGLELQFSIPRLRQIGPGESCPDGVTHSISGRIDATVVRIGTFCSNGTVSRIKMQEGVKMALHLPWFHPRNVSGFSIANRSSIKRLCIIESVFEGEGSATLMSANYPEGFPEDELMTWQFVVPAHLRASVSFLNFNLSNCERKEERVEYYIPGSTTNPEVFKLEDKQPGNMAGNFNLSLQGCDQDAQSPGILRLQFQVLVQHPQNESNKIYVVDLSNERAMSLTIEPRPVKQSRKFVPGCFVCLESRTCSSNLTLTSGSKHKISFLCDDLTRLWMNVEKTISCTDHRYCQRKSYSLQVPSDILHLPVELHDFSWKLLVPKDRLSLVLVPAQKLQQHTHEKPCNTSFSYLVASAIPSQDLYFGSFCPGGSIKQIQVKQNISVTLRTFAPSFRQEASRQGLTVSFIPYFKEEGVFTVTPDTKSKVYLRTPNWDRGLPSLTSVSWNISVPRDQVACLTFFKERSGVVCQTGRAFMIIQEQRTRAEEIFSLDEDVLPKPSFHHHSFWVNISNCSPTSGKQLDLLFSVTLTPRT
# B1: Mab CDCP1-015 (antibody, V domains shown)
# VH: QVHLKQSGPGLVQPSQSLSITCTVSGFSLTNFGLHWVRQSPGKGLEWLGVIWSGGVTDYNAAFISRLSISKDNSKSQVFFKMNSLQPNDTAIYYCARNYDHDYSMDYWGQGISVSVSS
# VL: DVVLTQTPLSLPVIIGDQASISCKSTKSLLNSAGFTYLGWYLQKPGQSPQLLIYLVSNRFSGVPDRFSGSGSGTDFTLKISRVEAEDLGVYFCFQSSYLPLTFGSGTKLEIK
# notes: also called CDCP1-0015; Murine CDCP1-015
# B2: CUB4 antibody (Deposition No. DSM ACC2551), murine (antibody, V domains shown)
# VH: EVQLVESGGDLVKPGGSLKLSCAASGFTFNSYGMSWVRQTPDKRLEWVATISSGGSYTYYPDSVKGRFTISRDNAKNTLYLQMSSLKSEDTAMYYCARHPDYDGVWFAYWGQGTLVTVSA
# VL: QIVLTQSPAIMSASPGEKVTMTCSVSSSVFYVHWYQQKSGTSPKRWIYDTSKLASGVPARFSGSGSGTSYSLTISSMEAEDAATYYCQQWNSNPPTFGGGTKLEIK
# notes: Deposited murine monoclonal antibody; also called Mab CUB4; murine CUB4
# Tests used:
# [1] = target: Short5 (hu CDCP1_SH5_ECD (aa 1-361)_SBP) (human) (UniProt Q9H5V8); assay: ELISA, SBP-CDCP1-Short5 captured on a streptavidin plate, antibody 0.1 ug in 50 ul, goat anti-mouse IgG-HRP, absorbance 370 nm/492 nm; the same antibody on Medium coating: 0,2330
# [2] = target: T1, Soluble extracellular domain (ECD) of …; assay: Biacore SPR, immobilized hCDCP1-ECD
# [3] = target: Short1 (huCDCP1_SH1_ECD aa1-216)_SBP (human) (UniProt Q9H5V8); assay: ELISA, SBP-CDCP1-Short1 captured on a streptavidin plate, antibody 0.1 ug in 50 ul, goat anti-mouse IgG-HRP, absorbance 370 nm/492 nm; the same antibody on Medium coating: 0,2330
# [4] = target: Short5 (hu CDCP1_SH5_ECD (aa 1-361)_SBP) (human) (UniProt Q9H5V8); assay: ELISA, SBP-CDCP1-Short5 captured on a streptavidin plate, antibody 0.1 ug in 50 ul, goat anti-mouse IgG-HRP, absorbance 370 nm/492 nm; the same antibody on Medium coating: 0,0420
# [5] = target: Short1 (huCDCP1_SH1_ECD aa1-216)_SBP (human) (UniProt Q9H5V8); assay: ELISA, SBP-CDCP1-Short1 captured on a streptavidin plate, antibody 0.1 ug in 50 ul, goat anti-mouse IgG-HRP, absorbance 370 nm/492 nm; the same antibody on Medium coating: 0,0420
Binder,Absorption [1],Kd [2],koff [2],kon [2],Absorption [3],Absorption [4],Absorption [5]
B1,1.49,470 pM,0.00022 s⁻¹,460000 M⁻¹ s⁻¹,1.3,,
B2,,520 pM,0.00052 s⁻¹,990000 M⁻¹ s⁻¹,,1.04,0.787
